Source: patent US20100221262A1 (Genentech, published 2010)
One block for each binder: values may come before it.

Columns and labels:
[1] = molecular target: T1, murine Netrin-1-Fc (Laminin V and VI homology domains, amino acid M1 to amino acid P455, fused to the Fc … (murine; human, UniProt O09118 25-455); test: SPR (ProteOn), Unc5B-His immobilised, mNetrin-1 injected at 250 nM
Procedure: (§1) Binding experiments were performed by surface plasmon resonance SPR measurements on a ProteOn XPR36 instrument (Bio-Rad Laboratories, Inc.) at 25° C. In accordance with common SPR terminology, proteins that are immobilized onto the sensor chip are referred to as ‘ligands’, whereas binding partners injected in solution are referred to as ‘analytes’.
(§2) For binding competition experiments human Unc5B-Fc and Unc5B-His proteins were used as ligands and immobilized at high surface densities (3000-4000 RU) on an activated ProteOn GLC sensor chip (Bio-Rad Laboratories, Inc.). Unc5B antibodies and Netrin-Fc were used as analytes. To perform binding assays, analytes and 1:1 molar mixtures of analytes were injected in PBS, 0.005% v/v Tween-20, pH 7.4, at a flow rate of 100 μl/min and sensorgrams for association and dissociation phases were recorded. Blank surfaces are used for background corrections. Analytes are injected for 240 s and allowed to dissociate for 600 s. […]
(§3) For the SPRs binding experiments Unc5B-His and -Fc proteins were immobilized onto a ProteOn GLC sensor chips and mNetrin-1, Unc5B antibodies or equimolar mixtures of Unc5B antibodies and Netrin-1 were injected as indicated at a concentration of 250 nM. Binding sensorgrams were recorded for association and dissociation reactions. […]

[2] = molecular target: T1, murine Netrin-1-Fc (Laminin V and VI …); test: SPR (ProteOn), Unc5B-Fc immobilised, mNetrin-1 injected at 250 nM
Procedure: as §1, §2, §3

binding result [1]: binds
B1: human Unc5B-His (two N-terminal Ig-like domains of Unc5B, amino acid M1 to amino acid V243, C-terminal Histidine tag) (receptor)
chain: not shown
notes: range 1-243; The cloned range M1-V243 includes the native signal peptide; also called human Unc5B-His tagged protein; not shown: C-terminal Histidine tag

binding result [2]: binds
B2: human Unc5B-Fc (two N-terminal Ig-like domains of Unc5B, amino acid M1 to amino acid V243, fused to the Fc portion of human IgG1) (Fc fusion)
chain: not shown
notes: range 1-243; not shown: Fc portion of human IgG1
